Results as given in the nanobody polyreactivity screen of Harvey et al. (2022).

Test: yeast display, Sf9 membrane polyspecificity reagent, FACS + sequencing; frameworks hold sequencing errors
Summary of the method: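 A synthetic nanobody library was expressed on Saccharomyces cerevisiae BJ5465 by galactose induction for 36–48 hours. The library was stained for 1 hour at 4 °C with 10% biotinylated, detergent-solubilized Sf9 membrane reagent and enriched with streptavidin microbeads before FACS. Low and high (top ~1%) gates were set on anti-HA fluorescence for expression and streptavidin fluorescence for reagent binding, and each polyreactivity label reflects the gate of origin.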

| Sequence | polyreactivity (PSR sort gate) |
| --- | --- |
| QVQLVDSGGGLVQAGGSLRLSCAASGRTFAFNYAMGWYRQAPGKERELVAAISSSGTRTRYADSVKGRFTISRDNAKNTVYLQMNSLKPEDTAVYYCSKRSLGIGRSNYWGQGTQVTVSS | high polyreactivity |
| QVQLVESGGGLVQAGGSLRLSCAAYGRTIRYYSMGRYRQAPAKERELVATISRRSGNTYYADSVKGRFTLSRDNAKNTVYLKMNSLKPEDTAVYYCAVRYFGLYNYDYWGQGTQVTVSS | high polyreactivity |
| QVQLVESGGGLVQAGGSLRLSCAASGCTFSIYAMGWYRQAPGKERELVAAFTGTVGSTYYADSVKVRFTISRDNAKNTVYLQMKSLKPEDTAVYYCNVDWFWNWRGYYWGQGTQVTVSS | low polyreactivity |
| QVQLVESGGGLVQAGGSLRLTCAASGLIFGVYAMGWYRQAPGKEMELVAGISWRGSSTYYADSVKGRFTISRDYAKNTVYLQMNSLIPEDTAVYYCADVRRPSRHAYGGTAVYYWGQGTQVTVSS | high polyreactivity |
| QVQLVESGGGLVQAGGSLRLSSAASGRIFRGNVMGWYRQAPGKERELVAVIRSSSGRTYYADSVKGRFTISRDNAKNTVYLQMNSLKPEDTAVYDCAAKSVWGQGTQVTVSS | high polyreactivity |
| QVQLVESGGGLVKAGGSLRLSCAASGLISWLYVMGWYRQAPGKERELVAAIRYSGGRTYYADSVKGRFTISRDNAKNTVYLQMHSMKPEDTAVYYCNALPWALYDSTSIYYYWGQGTQVTVSS | low polyreactivity |
| QVQLVESGGGLVQAGGSLRLTCAASGSTFYSNAMGWYRQAPGKERYLVAAITSRGDRTYYADSVKGRFTISRDNAKNTVYFQLNSLNPEDTAVYSCAAEQSWQGYAYYYWGQGTQVTVSS | high polyreactivity |
| QVQLVESGGGLGQAGGSLRLSCAASGRTFYYYTMGWYRPAPGKERELVAAITHGGSTYYADSVKGRFTISRDNAQNTVYLQMNSLKPEDTAVYSCTAVYHYPYEYWGQGTQVTVSS | high polyreactivity |
| QVQQVESGGGLVQAGGSLRLSWAASGRIFVINGMGWYRQAPGKERELVAGISSGGTTYADSVKGRFTISRDNAKNTVYLQMNSLKPEDTEVYYCAARGRYQPQFDYWGQGTQVTVSS | high polyreactivity |
| QVQLVESGGGLVQAGGSLRLSCAASGSTFNWNAMGWYRQAPGKERELVAAITSSGARTRYADSVKGRFTISRDNAKNTVYLQMNSLKPEDTAVYYCAAYVYISPSGYYYWGQGTQVTVSS | high polyreactivity |
| QVQLVESGGGLVQAGGSLRLSCAASGRTFGGNTMGWYRQAPGKERELVAAISFSGGSTYYADSVKGRFTISRDNAKNTVYLQMNSLKPEDTAVYYCAREDYSHSFLTYDYWGQGTQVTVSS | low polyreactivity |
| QVQLVESGGGLVQAGGSLRLSCAASGYIFISYAMGWYRQAPGKEREFVAAITGDGGSTYADSVKGRFSISRDNAKNTVYLQMNSLKPEDTAVYYCAVDGYGGEADYEYDHCGQGTQVTVSS | low polyreactivity |
| QVQLVESGGGLVQAGGSLLLSCAASGRTFYYNAMGWYRQAPGKERELVAAISRGGNTNYADSVKGRFTISRDNAKNTVYLQMNSLKPEDTAVYYCSTYHRYKFYYWGQGTQVTVSS | high polyreactivity |
| QVQLVESGGGLVQAGGSLRLSCAASGRIFEINAMGWYRQAPGKERELVAAITRSGGSTYYADSVKGRFTISRDNAKNTVYLQMNSLKPEDTAVYYCAARGRYWYSRYYSWGQGTQVTVSS | high polyreactivity |
| QVQLVESGGGLVQAGGSLRLSCAAAGSIFRINDMGWYRQATGKERELVAAITFSGGSTYADSVKGRFTISRDNAKNTVYLQMNSLKPEDTAVYYCNADGAYWTDYYLYDYWGHGTQVTVSS | low polyreactivity |
| QVHLVESGGGLVQAGGSLRLSCAASGRTFDDYAMGWYRQAPGKERELVAAISSSGGSTYYADSVKGRFTISRDNAKNTVYLQMNSLKPEDTAVYYCAADYDWGYWYDYWGQGTQVTVSS | low polyreactivity |
| QVQLVESGGGLVQAGGSLRLSCAASGRTFRRYVMGWYRQAPGKERELVAAIRWTGGSTYYADSVKGRFTISRDIAKNTVYLQMNSLKPEDTAVYYWAASSYICYGYWGQGTQVTVSS | high polyreactivity |
| QVQLVESGGGLVQAGGSLRLSCAASGRIFRYNAMGWYRQAPGKERELVAAISQSGGSTYYADSVKGRFTISRDNAMNTVYLQMNSLKPEDTAVYYCGADNYFLGDEDYWGQGTQGTVSS | high polyreactivity |
| QVQLVESGGGLVQAGGSLRLSCAASGRIFNSNTMGWYRQAPGKERELVAAIRGSGGSTYADSVKGRFTISRDNAKNTVYLQMNSLKPEDTAVYYCAASPRRWYTPDAVSTYRMYYWGQGTQVTVSS | high polyreactivity |
| QVQLVESGGGLVQAGGSLRLSCAASGIIFSRYAMGWYRQAPGKERELVAAISSSGGTTYYADSVKGRFTISRDNAKNTVYLQMNSLKPEDTAVYYCYAPAFYKYKSFYAHSGYDYWGQGTQVTVSS | high polyreactivity |
| QVQLVESGGGLVQAGGSLRLSCAASGITFIKNAMGWYRQAPGKERELVAAISRSGGRTYYADSVKGRFTISRDNAKNTVYLQMNSLKPEYTAVYYCAAVTQRSYIYDYWGQGTQVTVSS | high polyreactivity |
| QVQLVESGGGLVQAGGSLRLSCAASGSIFGYNTMGLYRKAPGKERELVAAISYRGGSTYADSVKGRFTISRDNAKNTVYLQMNSLKPVDTAVYYCDKRSIVGYRYSGYDYCGQGTQVTVSS | high polyreactivity |

| Sequence | polyreactivity (PSR sort gate) |
| --- | --- |
| QVQLVESGGGLVQAGGSLRLSCAASGITFKFYAMGWYRQAPGKEREWVATISWSGGITYYADSVKGRFTISRDNAKNTVYLQMNSLKPEDTAVYYCAADGPFTPRYYYWGQGTQVTVSS | low polyreactivity |
| QVKLVESGGGLVQAGGSLRLSCAASGRTFGSYAMGRYRQAPGKERELVAAITTDASTNYADSVKGRFTISRDNAKNTIYLQMNSLKPEDTAVYYCAKRNRTYYGYWGQGTQVTVSS | low polyreactivity |
| QVQLVESGGGLVQAGGSLRLSCAASGSTFYLYAKVWYRQAPGKERELVAAISWSGGDTYYADSVKGRFTISRDKAKNTVYLQMNSLKPEDTAVYYCAAEISYSSPGSPRRRDYWGQGTQVTVSS | low polyreactivity |
| QVQLVESGGGLVQAGGSLRLSCAASGRTFPFYAMGWYRPAPGTERELVASIRGGGGTNYADSVKGRFTISRDNAKNTVYLQMNSLKPEDTAVYYCAARGYGYRGYYYWGQGTQVTVSS | high polyreactivity |
| QVQLVESGGGLVQAGGSLRLSCAASGSTFLTYAMGWYRQAPGKEREFVAAISSTGTGRTYYADSVKGRFTISRDNAKNTVYLQMNSLKPEDTAVYYCAADLYGTYDYWGQGTQVTVSS | low polyreactivity |
| QVQLVESGGGLVQAGGSLRLSCAASGRIFKNNAMGWYRQAPGKEREFVAAISSIGGRTYYADSVKGRFTISRDNAKHTVYLQMNSLKPEDTAVYYCAARGYTGGLWYDYWGQRTQVTVSS | high polyreactivity |
| QVQLVESGGGLVQAGGSLGLSCAASGRIFARYAMGWYRQAPGKERELVAAITKSVGSTYYADSVKGRFTISRDNAKNTVYLQMNIMKPEDTAVYYCAARYRGGYYFGYETYYYWGQGTQVTVSS | high polyreactivity |
| QVQLVESGGGLVQAGGSLRLSCAASGITFVDYAMGWYRQAPGKEREFVAAISWSGGSTYYADSVKGRFTISRDNAKNTVYLQMNSLKPEDTAVYYCAARPKFGTAHRYYYWGQGTQVTVSS | high polyreactivity |
| QVQLVESGGGLVQAGGSLRLSCAASGSIFVQYAMGWCRQAPGKDRELVAAISDSGGSTYYADSVKGRFTISRDNAKNTVYVQMNSLKPEDTAVYYCAAVSTNSYSHRFGWGQGTQVTVSS | low polyreactivity |
| QVQLVESGGGLVQAGGSLRLSCAASGFTFVGYAMGWYRQEPGKERELVAAISTRGGSTYYADSVKGRFTISRDNAKNTDYLQMNSLKPEDTAVYYCNARGAKRGLLSYYWGQGTQVTVSS | high polyreactivity |
| QVHLVESGGGLVQAGGSLRLSCADSGRIFYQYAMGWYRQQPGKESELVARITSGGGTNYADSVKGRFSISRDNAKYTVYLQMNSLKPEDTAVYYCAAGPWYYSYPDYYWGQGTQVTVSS | high polyreactivity |
| QVQLVESGGGLVQAGGSLRLSCAASGRIFSRNTMGWYRQAPGKERELVAAISWRGGSTYYADSVKGRFTISRDNAKNTVYLQMNSLKPEDTAVFYCAAVVRSPAYDYWGQGTQVSVSS | high polyreactivity |
| QVQLVESGGGLVQAGGSLRLSCAASGRTFVVNAMGGYRQAPGKERELVAAITYSGDTTYYADSVKGRFTISRDNAKNTVYLQMNSLKPEDTAVYYCAADTGVVSPPAGLLIGPFDSWGQGTQVTVSS | low polyreactivity |
| QVQLVESGGGLVQAGGSLRLSCAASGRTFSRNAMGWYRQAPGKERELVAAITYSGGTTYYADSVKGRFTISRDNAKNTVYLQMNSLKPEDTAVYYCATPSRKSGVGYPSYNYWGQGTQVTVSS | high polyreactivity |
| QVQLVESGGGLVQAGGSLRLSCAASGLIFKYNGRGWNRQAPGNVRELGAAITKRGGSTYYADSVKGRFTISRDKAKNTVYLQMNSLKPEDTAVYYCAAGRAGRKDYYWGQGTQVTVSS | high polyreactivity |
| QDQLVESGGGLVQAGASLRLICAASGFIFPSYAMGWYRKAPGKERELVAAISWTGGTYYADSVKGRFTISRDNAKNTVYLQMNSLKPEDTAVYYGAVRYKRKGSGYRTNAYDYWGQGTQVSVSS | high polyreactivity |
| QVQLVESGGGLVQAGGSLRLSCADSGSTFRRYTMGWYRQAPGKERELVASITRSGGSKYYADSVKGRFTISRDNAKNTVYLQMNSLKPEDTAVYFCNKLSGYGWRSYGYWGQGTQVTVSS | high polyreactivity |
| QVQIVESRVGLVQAGGSLRLSCAASGLTFYYYAMGWYRQAPGKERELVAAIDGSGGITYYEDSLKARFTISRDNEKNTVYLQMNSLKPEDTAVYYCAAERVVGDAYDYWGQGTQVTVSS | high polyreactivity |
| QVQLVQSGGGLVQAGGSLSLSCAGSGSTFHNYAMGWYRQAPGQEREMVAGISVRGGGTYYAYSVKGRFTISRDNANNTVYVQMNSLKPEETAVYYCAASRSRYSVNWYNYWGQGTQVTVSS | high polyreactivity |
| QVQLVESGGGLVQAGGSLRLSCAASGSILGYYAMGWYRQAPGKERELVAGIDYSAGSTYYADSVKGRFTISRDNAKNTVYLQMNSLKPEDTAVYYCAADVDSYWGTYDYWGQGTQVTVSS | low polyreactivity |
| QVQLVESGGGLVKAGGILSLSCAASGRTFAFYGMGSYRQAPGKERELVATIRGTGGSTYYADSVKGRFTISRDNAKNTVYLQMNSLKPEDTAVYYCAAVNRRYPRYDYWGLGTQVTVSS | high polyreactivity |
